The assay has as its target human FcγRIIIa-V158 (CD16a, V158 allotype) (human) (UniProt P08637).

Regarding “P-TMab (trastuzumab produced by the glycoengineered rice cell line PhytoRice, line PHYTO101) (antibody)”, the EC50 of the in vitro ADCC assay (luminescence, Bio-Glo reagent; BT-474 target cells, Jurkat cells) worked out at 0.017 µg/mL.

For the origin of these results see PMC11500988.
